T1: TNFR1 (Homo sapiens, UniProt P19438)
T1 chain: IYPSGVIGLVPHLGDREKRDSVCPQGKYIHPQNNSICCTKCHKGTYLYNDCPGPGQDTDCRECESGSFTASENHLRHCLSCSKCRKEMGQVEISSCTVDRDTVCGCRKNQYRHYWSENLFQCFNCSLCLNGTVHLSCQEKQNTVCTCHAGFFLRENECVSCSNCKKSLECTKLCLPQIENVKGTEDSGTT


Molecular target: T1, TNFR1
Assay: yeast display SC50

| apparent Kd (screen) [nM] | Binder |
| --- | --- |
| 0.539 | E37T (designed binder) SMEEEVEKAAKEYEKKKKEAIEKHLEKLKAKDKEAATRFLKELEEAAKEYAKDEAKTMSEEEAKRRAKKYKEKVLLSELSEEEQKEIKEAEEKLVRTILKYVEEAAK |
| 0.956 | A30G (designed binder) SMEEEVEKAAKEYEKKKKEAIEKHLEKLKGKDKEAAERFLKELEEAAKEYAKDEAKTMSEEEAKRRAKKYKEKVLLSELSEEEQKEIKEAEEKLVRTILKYVEEAAK |
| 4.83 | S77K (designed binder) SMEEEVEKAAKEYEKKKKEAIEKHLEKLKAKDKEAAERFLKELEEAAKEYAKDEAKTMSEEEAKRRAKKYKEKVLLKELSEEEQKEIKEAEEKLVRTILKYVEEAAK |
| 0.49 | E12H (designed binder) SMEEEVEKAAKHYEKKKKEAIEKHLEKLKAKDKEAAERFLKELEEAAKEYAKDEAKTMSEEEAKRRAKKYKEKVLLSELSEEEQKEIKEAEEKLVRTILKYVEEAAK |
| 1.05 | K15V (designed binder) SMEEEVEKAAKEYEVKKKEAIEKHLEKLKAKDKEAAERFLKELEEAAKEYAKDEAKTMSEEEAKRRAKKYKEKVLLSELSEEEQKEIKEAEEKLVRTILKYVEEAAK |
| 11.4 | V95H (designed binder) SMEEEVEKAAKEYEKKKKEAIEKHLEKLKAKDKEAAERFLKELEEAAKEYAKDEAKTMSEEEAKRRAKKYKEKVLLSELSEEEQKEIKEAEEKLHRTILKYVEEAAK |
| 8.56 | F39K (designed binder) SMEEEVEKAAKEYEKKKKEAIEKHLEKLKAKDKEAAERKLKELEEAAKEYAKDEAKTMSEEEAKRRAKKYKEKVLLSELSEEEQKEIKEAEEKLVRTILKYVEEAAK |
| 1.4 | D32T (designed binder) SMEEEVEKAAKEYEKKKKEAIEKHLEKLKAKTKEAAERFLKELEEAAKEYAKDEAKTMSEEEAKRRAKKYKEKVLLSELSEEEQKEIKEAEEKLVRTILKYVEEAAK |
| 9.41 | V74Y (designed binder) SMEEEVEKAAKEYEKKKKEAIEKHLEKLKAKDKEAAERFLKELEEAAKEYAKDEAKTMSEEEAKRRAKKYKEKYLLSELSEEEQKEIKEAEEKLVRTILKYVEEAAK |
| 0.593 | A35T (designed binder) SMEEEVEKAAKEYEKKKKEAIEKHLEKLKAKDKETAERFLKELEEAAKEYAKDEAKTMSEEEAKRRAKKYKEKVLLSELSEEEQKEIKEAEEKLVRTILKYVEEAAK |
| 0.593 | E5S (designed binder) SMEESVEKAAKEYEKKKKEAIEKHLEKLKAKDKEAAERFLKELEEAAKEYAKDEAKTMSEEEAKRRAKKYKEKVLLSELSEEEQKEIKEAEEKLVRTILKYVEEAAK |
| 0.446 | A20K (designed binder) SMEEEVEKAAKEYEKKKKEKIEKHLEKLKAKDKEAAERFLKELEEAAKEYAKDEAKTMSEEEAKRRAKKYKEKVLLSELSEEEQKEIKEAEEKLVRTILKYVEEAAK |
| 18.3 | L79E (designed binder) SMEEEVEKAAKEYEKKKKEAIEKHLEKLKAKDKEAAERFLKELEEAAKEYAKDEAKTMSEEEAKRRAKKYKEKVLLSEESEEEQKEIKEAEEKLVRTILKYVEEAAK |
| 2.73 | A36N (designed binder) SMEEEVEKAAKEYEKKKKEAIEKHLEKLKAKDKEANERFLKELEEAAKEYAKDEAKTMSEEEAKRRAKKYKEKVLLSELSEEEQKEIKEAEEKLVRTILKYVEEAAK |
| 0.869 | R96V (designed binder) SMEEEVEKAAKEYEKKKKEAIEKHLEKLKAKDKEAAERFLKELEEAAKEYAKDEAKTMSEEEAKRRAKKYKEKVLLSELSEEEQKEIKEAEEKLVVTILKYVEEAAK |
| 7.07 | E7Y (designed binder) SMEEEVYKAAKEYEKKKKEAIEKHLEKLKAKDKEAAERFLKELEEAAKEYAKDEAKTMSEEEAKRRAKKYKEKVLLSELSEEEQKEIKEAEEKLVRTILKYVEEAAK |
| 0.49 | R38Y (designed binder) SMEEEVEKAAKEYEKKKKEAIEKHLEKLKAKDKEAAEYFLKELEEAAKEYAKDEAKTMSEEEAKRRAKKYKEKVLLSELSEEEQKEIKEAEEKLVRTILKYVEEAAK |
| 1.05 | K18M (designed binder) SMEEEVEKAAKEYEKKKMEAIEKHLEKLKAKDKEAAERFLKELEEAAKEYAKDEAKTMSEEEAKRRAKKYKEKVLLSELSEEEQKEIKEAEEKLVRTILKYVEEAAK |
| 0.446 | A105G (designed binder) SMEEEVEKAAKEYEKKKKEAIEKHLEKLKAKDKEAAERFLKELEEAAKEYAKDEAKTMSEEEAKRRAKKYKEKVLLSELSEEEQKEIKEAEEKLVRTILKYVEEGAK |
| 0.446 | E92D (designed binder) SMEEEVEKAAKEYEKKKKEAIEKHLEKLKAKDKEAAERFLKELEEAAKEYAKDEAKTMSEEEAKRRAKKYKEKVLLSELSEEEQKEIKEAEDKLVRTILKYVEEAAK |
| 1.86 | L94D (designed binder) SMEEEVEKAAKEYEKKKKEAIEKHLEKLKAKDKEAAERFLKELEEAAKEYAKDEAKTMSEEEAKRRAKKYKEKVLLSELSEEEQKEIKEAEEKDVRTILKYVEEAAK |
| 0.593 | S80R (designed binder) SMEEEVEKAAKEYEKKKKEAIEKHLEKLKAKDKEAAERFLKELEEAAKEYAKDEAKTMSEEEAKRRAKKYKEKVLLSELREEEQKEIKEAEEKLVRTILKYVEEAAK |
| 6.43 | E42I (designed binder) SMEEEVEKAAKEYEKKKKEAIEKHLEKLKAKDKEAAERFLKILEEAAKEYAKDEAKTMSEEEAKRRAKKYKEKVLLSELSEEEQKEIKEAEEKLVRTILKYVEEAAK |
| 1.05 | K33N (designed binder) SMEEEVEKAAKEYEKKKKEAIEKHLEKLKAKDNEAAERFLKELEEAAKEYAKDEAKTMSEEEAKRRAKKYKEKVLLSELSEEEQKEIKEAEEKLVRTILKYVEEAAK |
| 22.2 | V74S (designed binder) SMEEEVEKAAKEYEKKKKEAIEKHLEKLKAKDKEAAERFLKELEEAAKEYAKDEAKTMSEEEAKRRAKKYKEKSLLSELSEEEQKEIKEAEEKLVRTILKYVEEAAK |
| 2.05 | L76Y (designed binder) SMEEEVEKAAKEYEKKKKEAIEKHLEKLKAKDKEAAERFLKELEEAAKEYAKDEAKTMSEEEAKRRAKKYKEKVLYSELSEEEQKEIKEAEEKLVRTILKYVEEAAK |

— PMC12416549 (2024)
